From patent US20210340208A1 (ANWITA BIOSCIENCES, published 2021)

T1: IL-2Rα-Fc fusion protein (human, UniProt P01589 22-240)
T1 construct: also called human IL-2Rα (CD25); CD25; not shown: Fc part and any linker are not described; captured on an anti-human IgG Fc sensor
T1 sequence: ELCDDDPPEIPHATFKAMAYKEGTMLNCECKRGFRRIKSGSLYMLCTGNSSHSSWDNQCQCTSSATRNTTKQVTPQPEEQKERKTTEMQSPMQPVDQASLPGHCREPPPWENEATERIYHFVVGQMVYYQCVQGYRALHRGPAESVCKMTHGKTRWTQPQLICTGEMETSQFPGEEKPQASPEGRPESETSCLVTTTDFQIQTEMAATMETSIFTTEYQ

T2: human CD122-Fc (AbroBio) (human, UniProt P14784 27-239)
T2 construct: also called IL-2Rβ; not shown: Fc part and any linker of the bought protein are not described; captured on an anti-human Fc sensor
T2 sequence: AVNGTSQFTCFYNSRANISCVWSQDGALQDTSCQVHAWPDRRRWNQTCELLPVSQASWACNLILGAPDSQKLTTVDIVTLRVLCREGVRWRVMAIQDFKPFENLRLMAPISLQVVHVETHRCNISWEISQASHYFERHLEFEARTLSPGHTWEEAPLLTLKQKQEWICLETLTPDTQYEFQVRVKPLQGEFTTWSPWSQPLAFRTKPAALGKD


Molecular target: T1, IL-2Rα-Fc fusion protein
Experiment: BLI (Octet RED96), IL-2Rα-Fc on AHC biosensor
Protocol: OCTET® RED96 was used to characterize the interactions of a wild-type hIL-2 and hIL-2 muteins with a human IL-2Rα (CD25). Briefly, an IL-2Rα-Fc fusion protein was loaded onto an anti-human IgG Fc capture (AHC) biosensor. The biosensor was then dipped into a solution containing a wild-type hIL-2 (WT IL-2) or an IL-2 mutein at various concentrations. Primary experimental data was analyzed with global fitting to determine a binding affinity (Kd).

| binding result | Binder |
| --- | --- |
| no binding | hIL-2-anti-HSA A38 (ligand, fused to anti-HSA VHH; also called IL2 mutein (K32E, R38A, F42A, C125S)) APTSSSTKKTQLQLEHLLLDLQMILNGINNYENPKLTAMLTAKFYMPKKATELKHLQCLEEELKPLEEVLNLAQSKNFHLRPRDLISNINVIVLELKGSETTFMCEYADETATIVEFLNRWITFSQSIISTLTGSGGSGGSGGSGEVQLVESGGGLVQPGGSLRLSCAASGSTWSINTLAWYRQAPGKQRDLVARISSGGSTYYADSVKGRFTISRDNSKNTLYLQMNSLRAEDTAVYYCYAQSTWYPPSWGQGTLVTVSS |

Molecular target: T2, human CD122-Fc (AbroBio)
Experiment: BLI (Octet RED96), CD122-Fc on AHC sensor, 400 nM hIL-2 polypeptide
Protocol: OCTET® RED96 was used to characterize the interactions of a human CD122-Fc (AbroBio) with a wild-type hIL-2 and hIL-2 muteins. Briefly, an anti-human Fc sensor (AHC) loaded with the human CD122 was dip into 400 nM of an hIL-2 polypeptide. The binding signaling of fusion protein A1 was normalized to 1.

| CD122 Binding Response (A1 normalized to 1) | Binder |
| --- | --- |
| 0.22 | hIL-2-anti-HSA A64 (ligand, fused to anti-HSA VHH; also called hIL-2 mutein (T3A, R38N, L40T, F42A, E95N, C125S)) APASSSTKKTQLQLEHLLLDLQMILNGINNYKNPKLTNMTTAKFYMPKKATELKHLQCLEEELKPLEEVLNLAQSKNFHLRPRDLISNINVIVLNLKGSETTFMCEYADETATIVEFLNRWITFSQSIISTLTGSGGSGGSGGSGEVQLVESGGGLVQPGGSLRLSCAASGSTWSINTLAWYRQAPGKQRDLVARISSGGSTYYADSVKGRFTISRDNSKNTLYLQMNSLRAEDTAVYYCYAQSTWYPPSWGQGTLVTVSS |
| 0.39 | hIL-2-anti-HSA A72 (ligand, fused to anti-HSA VHH; also called hIL-2 mutein (K32E, F42C, V69C, E95N, C125S)) APTSSSTKKTQLQLEHLLLDLQMILNGINNYENPKLTRMLTCKFYMPKKATELKHLQCLEEELKPLEECLNLAQSKNFHLRPRDLISNINVIVLNLKGSETTFMCEYADETATIVEFLNRWITFSQSIISTLTGSGGSGGSGGSGEVQLVESGGGLVQPGGSLRLSCAASGSTWSINTLAWYRQAPGKQRDLVARISSGGSTYYADSVKGRFTISRDNSKNTLYLQMNSLRAEDTAVYYCYAQSTWYPPSWGQGTLVTVSS |
| 1.31 | hIL-2-anti-HSA A70 (ligand, fused to anti-HSA VHH; also called hIL-2 mutein (K32E, F42C, V69C, V91I, I92L, C125S)) APTSSSTKKTQLQLEHLLLDLQMILNGINNYENPKLTRMLTCKFYMPKKATELKHLQCLEEELKPLEECLNLAQSKNFHLRPRDLISNINILVLELKGSETTFMCEYADETATIVEFLNRWITFSQSIISTLTGSGGSGGSGGSGEVQLVESGGGLVQPGGSLRLSCAASGSTWSINTLAWYRQAPGKQRDLVARISSGGSTYYADSVKGRFTISRDNSKNTLYLQMNSLRAEDTAVYYCYAQSTWYPPSWGQGTLVTVSS |
| 0.17 | hIL-2-anti-HSA A61 (ligand, fused to anti-HSA VHH; also called hIL-2 mutein (T3A, H16N, R38N, L40T, F42A, C125S)) APASSSTKKTQLQLENLLLDLQMILNGINNYKNPKLTNMTTAKFYMPKKATELKHLQCLEEELKPLEEVLNLAQSKNFHLRPRDLISNINVIVLELKGSETTFMCEYADETATIVEFLNRWITFSQSIISTLTGSGGSGGSGGSGEVQLVESGGGLVQPGGSLRLSCAASGSTWSINTLAWYRQAPGKQRDLVARISSGGSTYYADSVKGRFTISRDNSKNTLYLQMNSLRAEDTAVYYCYAQSTWYPPSWGQGTLVTVSS |
| 0.3 | hIL-2-anti-HSA A67 (ligand, fused to anti-HSA VHH; also called hIL-2 mutein (K32E, F42C, V69C, D84T, C125S)) APTSSSTKKTQLQLEHLLLDLQMILNGINNYENPKLTRMLTCKFYMPKKATELKHLQCLEEELKPLEECLNLAQSKNFHLRPRTLISNINVIVLELKGSETTFMCEYADETATIVEFLNRWITFSQSIISTLTGSGGSGGSGGSGEVQLVESGGGLVQPGGSLRLSCAASGSTWSINTLAWYRQAPGKQRDLVARISSGGSTYYADSVKGRFTISRDNSKNTLYLQMNSLRAEDTAVYYCYAQSTWYPPSWGQGTLVTVSS |
| 0.35 | hIL-2-anti-HSA A63 (ligand, fused to anti-HSA VHH; also called hIL-2 mutein (T3A, R38N, L40T, F42A, V91I, C125S)) APASSSTKKTQLQLEHLLLDLQMILNGINNYKNPKLTNMTTAKFYMPKKATELKHLQCLEEELKPLEEVLNLAQSKNFHLRPRDLISNINIIVLELKGSETTFMCEYADETATIVEFLNRWITFSQSIISTLTGSGGSGGSGGSGEVQLVESGGGLVQPGGSLRLSCAASGSTWSINTLAWYRQAPGKQRDLVARISSGGSTYYADSVKGRFTISRDNSKNTLYLQMNSLRAEDTAVYYCYAQSTWYPPSWGQGTLVTVSS |
| 0.38 | hIL-2-anti-HSA A73 (ligand, fused to anti-HSA VHH; also called hIL-2 mutein (K32E, F42C, V69C, E95Q, C125S)) APTSSSTKKTQLQLEHLLLDLQMILNGINNYENPKLTRMLTCKFYMPKKATELKHLQCLEEELKPLEECLNLAQSKNFHLRPRDLISNINVIVLQLKGSETTFMCEYADETATIVEFLNRWITFSQSIISTLTGSGGSGGSGGSGEVQLVESGGGLVQPGGSLRLSCAASGSTWSINTLAWYRQAPGKQRDLVARISSGGSTYYADSVKGRFTISRDNSKNTLYLQMNSLRAEDTAVYYCYAQSTWYPPSWGQGTLVTVSS |
| 1.93 | hIL-2-anti-HSA A69 (ligand, fused to anti-HSA VHH; also called hIL-2 mutein (K32E, F42C, V69C, S87D, C125S)) APTSSSTKKTQLQLEHLLLDLQMILNGINNYENPKLTRMLTCKFYMPKKATELKHLQCLEEELKPLEECLNLAQSKNFHLRPRDLIDNINVIVLELKGSETTFMCEYADETATIVEFLNRWITFSQSIISTLTGSGGSGGSGGSGEVQLVESGGGLVQPGGSLRLSCAASGSTWSINTLAWYRQAPGKQRDLVARISSGGSTYYADSVKGRFTISRDNSKNTLYLQMNSLRAEDTAVYYCYAQSTWYPPSWGQGTLVTVSS |
| 0.14 | hIL-2-anti-HSA A60 (ligand, fused to anti-HSA VHH; also called hIL-2 mutein (T3A, E15V, R38N, L40T, F42A, C125S)) APASSSTKKTQLQLVHLLLDLQMILNGINNYKNPKLTNMTTAKFYMPKKATELKHLQCLEEELKPLEEVLNLAQSKNFHLRPRDLISNINVIVLELKGSETTFMCEYADETATIVEFLNRWITFSQSIISTLTGSGGSGGSGGSGEVQLVESGGGLVQPGGSLRLSCAASGSTWSINTLAWYRQAPGKQRDLVARISSGGSTYYADSVKGRFTISRDNSKNTLYLQMNSLRAEDTAVYYCYAQSTWYPPSWGQGTLVTVSS |
| 1.72 | hIL-2-anti-HSA A68 (ligand, fused to anti-HSA VHH; also called hIL-2 mutein (K32E, F42C, V69C, S87E, C125S)) APTSSSTKKTQLQLEHLLLDLQMILNGINNYENPKLTRMLTCKFYMPKKATELKHLQCLEEELKPLEECLNLAQSKNFHLRPRDLIENINVIVLELKGSETTFMCEYADETATIVEFLNRWITFSQSIISTLTGSGGSGGSGGSGEVQLVESGGGLVQPGGSLRLSCAASGSTWSINTLAWYRQAPGKQRDLVARISSGGSTYYADSVKGRFTISRDNSKNTLYLQMNSLRAEDTAVYYCYAQSTWYPPSWGQGTLVTVSS |
| 0.5 | hIL-2-anti-HSA A65 (ligand, fused to anti-HSA VHH; also called hIL-2 mutein (Q13N, K32E, F42C, V69C, C125S)) APTSSSTKKTQLNLEHLLLDLQMILNGINNYENPKLTRMLTCKFYMPKKATELKHLQCLEEELKPLEECLNLAQSKNFHLRPRDLISNINVIVLELKGSETTFMCEYADETATIVEFLNRWITFSQSIISTLTGSGGSGGSGGSGEVQLVESGGGLVQPGGSLRLSCAASGSTWSINTLAWYRQAPGKQRDLVARISSGGSTYYADSVKGRFTISRDNSKNTLYLQMNSLRAEDTAVYYCYAQSTWYPPSWGQGTLVTVSS |
| 1.44 | hIL-2-anti-HSA A71 (ligand, fused to anti-HSA VHH; also called hIL-2 mutein (K32E, F42C, V69C, I92L, C125S)) APTSSSTKKTQLQLEHLLLDLQMILNGINNYENPKLTRMLTCKFYMPKKATELKHLQCLEEELKPLEECLNLAQSKNFHLRPRDLISNINVLVLELKGSETTFMCEYADETATIVEFLNRWITFSQSIISTLTGSGGSGGSGGSGEVQLVESGGGLVQPGGSLRLSCAASGSTWSINTLAWYRQAPGKQRDLVARISSGGSTYYADSVKGRFTISRDNSKNTLYLQMNSLRAEDTAVYYCYAQSTWYPPSWGQGTLVTVSS |
| 0.29 | hIL-2-anti-HSA A62 (ligand, fused to anti-HSA VHH; also called hIL-2 mutein (T3A, M23K, R38N, L40T, F42A, C125S)) APASSSTKKTQLQLEHLLLDLQKILNGINNYKNPKLTNMTTAKFYMPKKATELKHLQCLEEELKPLEEVLNLAQSKNFHLRPRDLISNINVIVLELKGSETTFMCEYADETATIVEFLNRWITFSQSIISTLTGSGGSGGSGGSGEVQLVESGGGLVQPGGSLRLSCAASGSTWSINTLAWYRQAPGKQRDLVARISSGGSTYYADSVKGRFTISRDNSKNTLYLQMNSLRAEDTAVYYCYAQSTWYPPSWGQGTLVTVSS |
| 0.65 | hIL-2-anti-HSA A66 (ligand, fused to anti-HSA VHH; also called hIL-2 mutein (L19S, K32E, F42C, V69C, C125S)) APTSSSTKKTQLQLEHLLSDLQMILNGINNYENPKLTRMLTCKFYMPKKATELKHLQCLEEELKPLEECLNLAQSKNFHLRPRDLISNINVIVLELKGSETTFMCEYADETATIVEFLNRWITFSQSIISTLTGSGGSGGSGGSGEVQLVESGGGLVQPGGSLRLSCAASGSTWSINTLAWYRQAPGKQRDLVARISSGGSTYYADSVKGRFTISRDNSKNTLYLQMNSLRAEDTAVYYCYAQSTWYPPSWGQGTLVTVSS |
| 0.55 | hIL-2-anti-HSA A59 (ligand, fused to anti-HSA VHH; also called hIL-2 mutein (T3A, Q13E, R38N, L40T, F42A, C125S)) APASSSTKKTQLELEHLLLDLQMILNGINNYKNPKLTNMTTAKFYMPKKATELKHLQCLEEELKPLEEVLNLAQSKNFHLRPRDLISNINVIVLELKGSETTFMCEYADETATIVEFLNRWITFSQSIISTLTGSGGSGGSGGSGEVQLVESGGGLVQPGGSLRLSCAASGSTWSINTLAWYRQAPGKQRDLVARISSGGSTYYADSVKGRFTISRDNSKNTLYLQMNSLRAEDTAVYYCYAQSTWYPPSWGQGTLVTVSS |
